In paper PMC9437053:

Target: ribosomal protein S1 (Escherichia coli, UniProt P0AG67 1-557)
Assay: EMSA; natural S1; preferred over SBS-Up; EMSA: 1 uM biotin-RNA, 1x EMSA/Gel-shift binding buffer (Beyotime), 20 C, 30 min; native PAGE in ice-cold 0.5x TBE, 170 V; salt and pH not stated

Question: Does UCGGCUCGUAUAAUGUGUGGAACGCUUUUACUGUUUUAAGGAGAUAUACC (ssRNA) [SBS-Down-RNA] bind?
Answer: binds
